Measurements as given in patent publication US20110033935.
Where a chain is given by its changes, count along the chain named.

Target: T1, HSV2
T1 chain: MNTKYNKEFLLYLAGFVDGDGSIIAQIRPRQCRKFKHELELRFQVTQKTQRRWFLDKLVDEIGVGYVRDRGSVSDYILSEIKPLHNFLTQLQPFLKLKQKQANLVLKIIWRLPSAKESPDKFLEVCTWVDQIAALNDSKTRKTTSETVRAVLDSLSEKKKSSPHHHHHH

B1: HSV1 (protein)
chain: T1 chain with R28K, C32S, R33C, E40R, R42Q
- cleavage of a linearized DNA substrate with the intended non-palindromic recognition sequence (SEQ ID NO: 28, HSV UL36 gene) by the 1:1 mixture: each rationally-designed meganuclease heterodimer cleaves its intended DNA site
